The nanobody polyreactivity screen of Harvey et al. (2022)

Assay: yeast display, Sf9 membrane polyspecificity reagent, FACS + sequencing; frameworks hold sequencing errors
Method in brief: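 Polyreactivity labels are assigned by the sorting gate from which each nanobody was recovered. The gates were low and high (top ~1%), set on anti-HA fluorescence for expression and streptavidin fluorescence for reagent binding. Before sorting, galactose-induced (36–48 hours) yeast display cells were stained for 1 hour at 4 °C with 10% biotinylated, detergent-solubilized Sf9 membrane reagent.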

Sequence	polyreactivity (PSR sort gate)
QVQLVESGGGLVQAGGSLRLSCAASGSIFGRYVMGWYRQAPGKERELVAAISTSGDSTYYADSVKGRFTISRDNAKNTVYLQMNSLKPEDTAVYYCNARKRTFPSRSIGGDYWGQGTQVTVSS	high polyreactivity
QVQLVESGGGLVQAGGSLRLSCAASGSIFYYYAMGWSRQAPGKERELVAGINSGDSTYYADSVKGRFTISRDNAKNTVYLQMNRLKPEYTAVYYCAASADWWYEYWGQGTEVTVSS	low polyreactivity
QVQLVESGGGLVQAGGSLRLSCAASGITFQRYAMGWYRQAPGKERELVAAISTNGGTTYYADSVKGRFTISRDTAKNTVYLQMNSLKPEDTAVYYCNAESGYVYYIRYNYWGQGTQVTVSS	high polyreactivity
QVQRVESGGGLVQAGGSRRLSCAASGNIFRRYTMGWYRQAPGKERELVAAISRRGGSTHYADSVKGRFTISRDNAKNTVYLQMNSLKPEDTAVYYCNAYLVYSYSPSHYYGFGYWGQGTQVTVSS	high polyreactivity
QVQLVESGGGLVQAGGSLRLSCAASGRIFAYNTMGWYRQAPRKERELVAVITSGGATNYADSVKGRFTISRDNAKNTVYLQMNSLKPEDTAVYYCAKRPYGRSGGSRYDYWGQGTQVTVSS	high polyreactivity
QVQLVESGGGLVQAGGSLRLSCAASGSTLNSYVMGWYRQAPGKERELVATIRSGSSTNYADSVKGRFTISRDNAKNTVYLQMNSLKPEDTAVYYCAADAYSLCYDSWGQGTQVTVSS	low polyreactivity
QVQLVESGGGLVQAGGSLRLSCAASGFIFNSNARGWYRQAPGKERELVAAISGLGGSTYYADSVKGRFTISRDNAKNTVYIQMNSLKPEDTAVYYCAADVTYGTKWAYDYWGQGTQVTVSS	high polyreactivity
QVQLVESGGGLVQAGGSLRLSCAASGSIFLGYTMGWYRQAPGKERELVAAINSSGGSTYYADSVKGRFTISRDNAKNTVYLQMNSLKAEDTAVYYCADANSILLFDSWGQGTQVTVSS	low polyreactivity
QVQLVESGGGLVQAGGSLRLSCAASGRTIYSNAMGWYRQPPGKERELVAAITGSSGSTYYADSVKGRFTISRDNAKNTVYLQMNSLKPEDTAVYYCAASCYCSLVRQLRLRGQGTQVTVSS	low polyreactivity
QVQLVESGGGLVQAGGSLRLSCAASGFTFYYNAMGCYRQAPGKERELVASISSNGTSTYYADSVKGRFTISRDNAKNTVYLQMNSLKPEDTAVYYCNVDIFDPRTYDYWGQGTQVTVSS	low polyreactivity
QVQLVESGGGLVQAGGSLRLSGAASGRTFVSYTMGWYRQAPGKERQLVAAISDDGDSTYYADSVKGRFTISRDYAKNTVYLQMNSLKPEDTAVYYCAAGEYQYFWFPFDYWGQGTQVTVSS	low polyreactivity
QVQLVESGLGLVQAGGSLRISCAASGLTIYYYAMGWYRQAPGKERELVAAITWRGGSTYYADSVKGRFTISRDNAKNTVYLQMNSLKPEDTAVYYCNKAYKYIRQQPYRTKRYDYWGQGTQGTVSS	low polyreactivity
QVQLEESGGGLVQAGGSLRLTCAASGIIFRFYAMRCDRQAPGKERELVAVITSRSDSTYYADSVKGRFTISRDYAKNTVYLQMNSVKPEDTAVYYCNARYPWYYRYSTYDYWGQGTQVTVSS	high polyreactivity
QVQLVESGGGLVQAGGSLRLSCAASGIIFTHNAMGWYRQAPGKERELVAAISWSGGSTYYADSVKGRFTISRDNAKNTVYLQMNSLKPEDTAVYYCNAKFKQSYAQVAKFNSWGQGTQVTVSS	low polyreactivity
QVQLVESAGGLVQAGGSLRLSCAASGYTISYANAMGWYRQAPGKERELVASISSTGGRTYYADSVKGRFTISRDNAKNTVYLQMNSLKPEDTAVYYCASRYWRYGYWGQGTQVTVSS	high polyreactivity
QVHLVESGGGLVQAGGSLRLSCAASGSTFRYYAMGWYRQAPGKERELVAAIRDSGGSTYYADSVKGRFTISRDNAKNTVYLQMNSLKPEDTAVYYCARRAYRWYSAYDSWGQGTQVTVSS	high polyreactivity
QVQLVESGGGLVQAGGSLRLSCAASGRTFSQYAMGWYRQAPGKERELVAPISWSGGSTYYADSVKGRFTISRDNAKNTVDLQMNSLKPEDTAVFYCAAVGKGSSRSSYPVLYDYWGQGTQVTVSS	low polyreactivity
QVQLVESGGGLVQAGGSLRLSCAASGFTSYDNAMGWYRPAPGKERELVAASTWDGGSTYYADSVKGRFTISRDNAKNTVDLQMNSLKPEDTAVYDCAADLADFYPRYNYWGQGTQVTVSS	low polyreactivity
QVQLVESGGGLVQAGGSLRLICAASGSIFAYNAMGWYRQAPGKERELVAAITDSGGSTFYADSVKGRFTISRDNAKNTVYLQMNSLKPEDTAVYYCATSGDRLVWGQGTQVTVSS	low polyreactivity
QVQLVESGGGLFQAGGSLRLSCSASGFIFRGYAMGWSRQAPGKERELVAAISTGGGRTYYADSVKGRFTISRDNAKNTVYLQMNSLKPEDTAVYYCNRLSYTQVLMDYWGQGTQVTVSS	high polyreactivity
QVQLVESGGGLVQAGCSLRISCAASGFTFAHNEMGWSRQAPGKERELVAAISSRGGRTFYADSVKGRFTISRDNAKKTVYLQMNSLKPEDTAVDYCNRVRSVQYDYWGQGSQVTVSS	high polyreactivity
QVQLVESCGGLVQAGGSLRLICAASGRNFGHNAMGWYRQAPGKEREFVAAITYSGVRTFFADSVKGRFTISRDNAKNTVYLQMNCLKPEDTAVYYCATDWRRYYDYWGQGTQVTVSS	low polyreactivity

Sequence	polyreactivity (PSR sort gate)
QVQLVESGGGLIQPGGSLRLSCAASGSTFANNAMGWYRQAPGKESELVASISSDGSTNYADSVKGRFTISRDNAKNTVYLQMNSLKPEDTAVYYCAADWYYSADYFHFGYWGQGTQVTVSS	low polyreactivity
QVQLVESGGGLVQAGGSLRLSCAASGFIFRSNAMGWYRQAPGKEREFVAAISSRGGSTTYADSVKGRFTISRDNAKNTVYLQMNSLKPEDTAVYYCARSLRRFVVAYDYWGQGTQVTVSS	high polyreactivity
QVQHVESGGGLVQAGGSLRLSCAASGSIFYYYAMGWYRQAPGKERELVATISSSSGSTYADSVKGRFTISRDNAKNTVYLQMNSLKPEDTAVYYCAKDYWGQGTKVTVSS	low polyreactivity
QLQLVESGGGLVQAGGSLRLTCAASGIIFAYNARGWYRQAPGKERELVATITDSRGSTSYADSVKGRFTISRDNAKNTVYLQMNSLKPEDTAVYYCAVLPVYWYWRNYVYLSGYDYWGQGTQVTVSS	low polyreactivity
QVQLVESGGGLVQAGGSLRLSCAASGSTSYTNAMGWYRPAPGKERELVAGITRSGDSTYYADSVKGRFTISRDNAKNTVYLQMNSLKPEDTAVYYCAADIGDYWWGYYTGYYYWGQGTQVTVSS	high polyreactivity
QVQLEESGGGLVQAGGSLRLSCAACGSIFDNYAMGWYRQAPGKERELVAVISKRGGRTYYADSVKGRFTISRDNAKNTVYLQMNSLKPEDTAVYYCANGGQGSTPTSAWAKYDYWVQGTQVTVSS	high polyreactivity
QVQLVESGGGLVQAGGSLRLSCAASGSTFYIYAMGWYRQAPGKERELVAAIDWNDGSTYYADSVKARFTISRDNAKNTVYLQMNSLKPEDTAVYYCAAAIYIYRGGTYDYWGQGTQVTVSS	high polyreactivity
QVQLVESGGGLVQAGGSLRLSCAASGSTFGFYAMGGYRQAPGKERELVAAITSGDITYADSVKGRFTISRDNAKNTVYLQMNSLKPEDTAVYYCATTSYGYWFGYIPEVDYWGQGTQVSVSS	low polyreactivity
QVQLVESGGGLVQAGGSLRLSCAASGRTFLYYAMGWESQGPGKERELVAAITGRGGSTYSADSVKGRFTISRDNAKNTVYLQMNILKPEDTAVYYCAARDNWIRRDGYWGQGTQVTVSS	high polyreactivity
QVQLVESGGGLVQAGGSLRLSCAASGSTFEDYSMGWYRQAPGKERELVAAISHIGGSTYYADSVKGRFTISRDNAKNTVYLQMNSLKPDDTAVYYCAKGGFSSKFDYWGQGTQVTVSS	low polyreactivity
QVQLVESGGGLVQAGGSLRLSCAASGFTFHSYAMGWYRQAPGKERELVAAISYSGGSTYYADSVKGRFTISRDNAKNTVYLQMHSLKPEDTAVYYCAGLRYIYGYANDYWGQGTQVTVSS	low polyreactivity
QVQLVESGGGLVQAGGSLRLSCAASGITFANYAVGWYRQAPGKERELVAAISTSGGSTYYADSVKGRFTISRDNAKNTVDLQMNSLKPEDTAVYYCAARPYPWANFGYWGQGTQVTVSS	high polyreactivity
QVQLVESGGGLVQAGGSLRLSCAASGIIFLSYAIGWYRQAPGKERELFAAISSGVSTYSADSVKGRFTISRDNAKNPVYFQMNSLKPEDTAVYFCAAYYLWPGYQFRPYDYWGQGTQVTVSS	low polyreactivity
QVQLVESGGGLVQAGGSLRLSCAASGSTFAQNAMGWYRQAPGKEREFVAAITGTVGSTYYADSVKGRFTISRDNAKNTVYLQMNSLKPEDTAVHYCAVVHVFYAVSYFSFYTYDYWGQGTQVTVSS	low polyreactivity
QVQLVESGGGLVQAGGSLRLSCAASGLIFDHNAMGWYRQAPGKERELVAAISYSGARTYYADSVKGRFTISRDNAKNTVYLQMYSLKPEDTAVYYCNAVINSHRRHVTYDYWGQGSQVTVSS	high polyreactivity
QVQLVESGGGLVQAGGSLRLSCAASGRTFLYSTMGWYRQAPGKERELVAAISKSVGRTYYADSVKGRFTISRDNAKNTVYLQMNSLKPEDTAVYYCAKRWYAGAQHGFDYLGQGTQVTVSS	low polyreactivity
QVQLVESGGGLVQAGGSLRLSCAASGRTFLRYAMGWYRQAPGKERELVAAISVSGGNTYYADSVKGRFTISRDNAKNTVYLQMNSLKPEDTAVYYCNKARLAAVFSYPYGYWGQVTQVTVSS	low polyreactivity
QVQLVESGGGLVQAGGSLRLSCAASGSNFTYYAMGWYRQAPGKEREFVAAINRSGGSTYYADSVKGRFTISRDNAKNTVYLQMNSLKPEDTAVYYCAARRGSGALRYNYWGQGTQVTVSS	high polyreactivity
QVQHVESRGGLVQAGGSLRLSCAASGRTFFWYAMGWYRQAPGKERELVADISSSGGSTYYADSVKGRFTISRDNAKNTVYLQMNSLKPEDTAVYYCAALSPWWRGGYNYWGQGTQVTVSS	high polyreactivity
QVQHVESGGGLVQAGGSLRLSCPASGSIFARYAMGWYRQAPGKERELVAAITSGGITNYADSVMGRFTISRDNAKNTVYLQMISLNPEDTAVYYCAARRSGRVRYDYWGQGTQVTVSS	high polyreactivity
QVQLVESGGGLVQAGGSLRLSCAASGSTFVNNVMGWYRQAPGKERELVAAISGRGGNTYYADSVKGRFTISRDNAKNTVYLQMNSLKPEDTAVYYCAPYSWGWSLWTYDYWGQGTQVTVSS	high polyreactivity
